Results taken from the supplement of paper PMC10567573.

B1: TOR1AIP2 (parent)
chain: DGAGRTWQDSDTVKLLVDLELSYG
B2: ZBTB22 (parent)
chain: HTGLKPYECGVCAKKFMWRDSFMR

Variants of: B1
Test: protein stability index of a GFP-peptide fusion (GPS, HEK-293T) (PSI 1-6); higher = more stable
Details: c terminus: a fixed tail appended
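Further: lentivirally expressed fusions sorted by FACS into six bins by GFP to DsRed ratio, PSI derived from sequencing read proportions per bin multiplied by bin number.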

Protein stability index: each site, then its substitutions
G24: P 2.77, N 1.26, A 2.47, S 2.51, I 3.44, K 2.88, D 1.8, T 1.73, E 1.71, Q 2.53
S10: N 1.6, H 1.04, T 1.99, A 1.92, R 2.08, V 2.92, E 3.06, D 3.02, P 2.36, Q 1.9, C 2.18, G 1.01
Q8: G 3.19, R 2.88, D 1.24, M 2.09, E 2.26, S 3.33, Y 1.56, P 2.49, T 4.32, N 2.26, K 1.38
L19: Y 3.19, A 3.97, I 2.03, V 2.27, C 2.8, N 3.75, K 4.38, G 4.45, E 4.55, D 4.31, M 3, F 2.43, T 4.11, S 4
D11: P 1.66, I 3.92, G 1.18, N 2.14, R 1.13, A 2.27, Q 3.09, F 2.77, K 1.53, E 2.08, S 1.52
K14: R 1.83, A 1.96, N 1.74, G 1.91, T 1.61, P 3.03, E 1.88, W 1.5, Q 1.63, D 1.91, S 1.61, H 1.42
S22: M 2.13, Y 2.35, F 1.79, P 3.28, A 3.17, I 1.55, T 1.56, K 3.51, G 2.49, D 2.51, L 1.89, N 3.21, R 1.84, C 1.85, Q 2.61, H 1.7, W 1.47, E 2.33
T12: N 2.79, H 1.35, K 2.6, M 1.58, S 2.28, Y 1.49, R 2.59, W 1.87, I 1.54, D 3.56, Q 1.6, F 1.4, E 3.43, V 2.03
R5: W 2.76, T 1.46, Q 2.05, Y 2.33, V 3.3
V13: E 3.95, L 2.07, P 3.82, N 3.08, D 5.09, K 2.18, I 1.06, R 2.7, T 2.44, F 1.37, M 2.77, C 2.04
W7: H 2.83, C 2.79, I 2.5, E 4.3, V 2.44, F 2.91, D 4.15, N 4.06, A 3.35, L 2.03, G 3.22, R 3.68, P 2.45, M 2.36
Y23: G 2.6, H 1.77, A 1.1, K 3.9, I 1.36, N 1.45, D 1.91, M 5.21, E 1.85, T 2.56, R 2.15, F 1.03, S 1.56
L15: I 1.75, P 3.82, A 3.7, Q 4.28, Y 1.84, R 3.9, E 4.54, K 4.4, T 3.67, S 4.04, G 3.75, H 3.54, F 2.18, V 2.53, N 4.18, W 2.07
L16: P 3.38, Y 1.82, Q 3.31, D 3.52, S 3.36, N 3.94, R 2.98, W 2.88, E 3.69, K 4.25, C 1.99, T 3.66, G 3.57, I 2.57, M 2.02, V 1.42
D18: C 2.22, M 1.36, K 1.98, P 3.1, I 4.08, S 1.52, N 1.8, H 1.08, A 4
V17: S 3.21, I 2.54, E 4.81, L 2.34, Q 3.97, C 1.92, M 1.85, F 1.78, D 4.56, G 3.17, R 3.11, Y 2.39, N 4.01, W 1.58
E20: F 2.34, G 2.13, T 1.48, M 1.68, R 1.61, L 2.12, D 1.56, Y 1.59, S 1.75, Q 2.23, W 2.81, N 2.08, K 1.93, P 3.09, H 1.26
D9: E 1.5, N 2.92, V 2.09, H 1.09, R 3.52
L21: K 2.02, D 2, F 1.6, Y 1.62, T 1.44, H 2.84, Q 2.35, W 1.72, E 1.62, P 3.99, N 2.07, C 1.75, A 2.01, M 2.65
T6: K 3.73, I 2.17, C 1.92, E 2.62, A 1.74, S 2.96, W 1.1, Y 1.58, Q 2.03, D 2.37

Variants of: B2
Test: as above
Details: c terminus: a fixed tail appended

Protein stability index: each site, then its substitutions
T2: K 2.14, F 4.25, P 2.72, C 3.8, M 1.17, R 2.38, G 1.74, E 2.67, Y 2.79, D 3.09, N 2.28
Y7: L 2.73, P 1.34, G 2.84, E 1.3, T 3.12, V 1.67, Q 1.77, C 2.68, N 2.43, M 2.08, A 2.64, S 1.97, I 3.53, F 2.27, K 3.09, D 1.82
H1: T 2.24, A 3.04, C 1.3, S 1.92, F 1.76, I 2.85, D 1.45, Q 2.71
P6: S 2.62, A 3.44, T 2.99, N 1.65, R 2.1, D 1.82, F 2.28, L 2.99, K 3.36, Y 2.11, Q 2.26, H 2.3, E 2.97, M 2.6, I 1.45, V 1.1
E8: C 1.96, D 2.94
K5: I 2.05, N 1.56, S 1.96, M 2.73, C 2.43, R 2.38, F 2.66, D 3.82, L 1.92, P 1.62
G3: V 3.07, K 2.3, T 2.23, A 2.15, Q 1.52, I 2.91, D 1.36, L 1.69, P 4.19, S 2.62, E 3.34, C 2.47, N 3.32
L4: D 2.32, C 1.64, A 1.62, I 2.75, H 2.07, N 1.37, E 1.86, V 3.58, M 1.93, S 4.46, Y 3.37, G 1.92, F 2.27
